The sequences below were run on Escherichia coli TOP10 (assay: shrunken log2 fold change of peptide-encoding DNA abundance (4.5 h post-induction vs induction); higher = less antimicrobial activity (less host growth inhibition)). Details: time post-induction: 4.5 h; library: site-saturation at positions 5, 18, 19, 20.
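Also: peptides expressed intracellularly from a pBAD plasmid library in pooled LB shake-flask culture, induced with 0.3% L-arabinose, DNA abundance read by NGS, three biological replicates, DESeq2 with apeglm shrinkage.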

Row | Sequence | shrunken log2 fold change
1 | RRIRWRPPRLPRPRPRPLWKPRP | -0.128
2 | RRIRWRPPRLPRPRPRPLWLPRP | 0.202
3 | RRIRWRPPRLPRPRPRPMATPRP | 0.26
4 | RRIRWRPPRLPRPRPRPMELPRP | 1.2
5 | RRIRWRPPRLPRPRPRPMFCPRP | -0.0733
6 | RRIRWRPPRLPRPRPRPMGDPRP | 0.676
7 | RRIRWRPPRLPRPRPRPMHMPRP | -0.287
8 | RRIRWRPPRLPRPRPRPMKRPRP | 0.0121
9 | RRIRWRPPRLPRPRPRPMLEPRP | -0.0685
10 | RRIRWRPPRLPRPRPRPMMKPRP | 0.155
11 | RRIRWRPPRLPRPRPRPMMYPRP | -0.339
12 | RRIRWRPPRLPRPRPRPMNDPRP | -0.0845
13 | RRIRWRPPRLPRPRPRPMPAPRP | 0.995
14 | RRIRWRPPRLPRPRPRPMPDPRP | 0.173
15 | RRIRWRPPRLPRPRPRPMPVPRP | 0.346
16 | RRIRWRPPRLPRPRPRPMQMPRP | 1.53
17 | RRIRWRPPRLPRPRPRPMQQPRP | 0.056
18 | RRIRWRPPRLPRPRPRPMTHPRP | -0.0884
19 | RRIRWRPPRLPRPRPRPMTWPRP | 2.14
20 | RRIRWRPPRLPRPRPRPMVKPRP | 0.17
21 | RRIRWRPPRLPRPRPRPMVSPRP | -0.0339
22 | RRIRWRPPRLPRPRPRPMVYPRP | 0.0222

Row | Sequence | shrunken log2 fold change
23 | RRIRWRPPRLPRPRPRPMWGPRP | 0.117
24 | RRIRWRPPRLPRPRPRPMYAPRP | 0.325
25 | RRIRWRPPRLPRPRPRPMYSPRP | -0.612
26 | RRIRWRPPRLPRPRPRPMYWPRP | 0.0085
27 | RRIRWRPPRLPRPRPRPNAWPRP | 0.826
28 | RRIRWRPPRLPRPRPRPNAYPRP | -0.214
29 | RRIRWRPPRLPRPRPRPNGHPRP | -0.0518
30 | RRIRWRPPRLPRPRPRPNIQPRP | -0.0736
31 | RRIRWRPPRLPRPRPRPNLAPRP | 0.0306
32 | RRIRWRPPRLPRPRPRPNMAPRP | 0.345
33 | RRIRWRPPRLPRPRPRPNMKPRP | -0.0784
34 | RRIRWRPPRLPRPRPRPNNIPRP | -0.779
35 | RRIRWRPPRLPRPRPRPNNNPRP | -0.514
36 | RRIRWRPPRLPRPRPRPNPAPRP | 0.098
37 | RRIRWRPPRLPRPRPRPNQWPRP | 0.223
38 | RRIRWRPPRLPRPRPRPNQYPRP | -0.113
39 | RRIRWRPPRLPRPRPRPNRSPRP | -0.0777
40 | RRIRWRPPRLPRPRPRPNTVPRP | 0.178
41 | RRIRWRPPRLPRPRPRPNVAPRP | 0.088
42 | RRIRWRPPRLPRPRPRPNYEPRP | -0.222
43 | RRIRWRPPRLPRPRPRPNYLPRP | -1
44 | RRIRWRPPRLPRPRPRPPDKPRP | 0.423

Row | Sequence | shrunken log2 fold change
45 | RRIRWRPPRLPRPRPRPPDTPRP | 0.525
46 | RRIRWRPPRLPRPRPRPPDWPRP | 1.19
47 | RRIRWRPPRLPRPRPRPPEWPRP | 0.36
48 | RRIRWRPPRLPRPRPRPPFPPRP | 0.37
49 | RRIRWRPPRLPRPRPRPPGAPRP | 0.904
50 | RRIRWRPPRLPRPRPRPPGEPRP | 0.625
51 | RRIRWRPPRLPRPRPRPPGHPRP | 0.403
52 | RRIRWRPPRLPRPRPRPPGKPRP | 0.214
53 | RRIRWRPPRLPRPRPRPPIWPRP | 0.628
54 | RRIRWRPPRLPRPRPRPPIYPRP | 0.0337
55 | RRIRWRPPRLPRPRPRPPLCPRP | 0.668
56 | RRIRWRPPRLPRPRPRPPLSPRP | 0.271
57 | RRIRWRPPRLPRPRPRPPMCPRP | 0.252
58 | RRIRWRPPRLPRPRPRPPMLPRP | 0.0923
59 | RRIRWRPPRLPRPRPRPPMWPRP | 0.108
60 | RRIRWRPPRLPRPRPRPPNEPRP | 0.424
61 | RRIRWRPPRLPRPRPRPPNFPRP | 0.015
62 | RRIRWRPPRLPRPRPRPPPSPRP | 0.794
63 | RRIRWRPPRLPRPRPRPPQAPRP | 0.733
64 | RRIRWRPPRLPRPRPRPPQDPRP | 0.267
65 | RRIRWRPPRLPRPRPRPPRLPRP | 0.526
66 | RRIRWRPPRLPRPRPRPPRRPRP | 0.642

Row | Sequence | shrunken log2 fold change
67 | RRIRWRPPRLPRPRPRPPSEPRP | 0.456
68 | RRIRWRPPRLPRPRPRPPSFPRP | -0.0861
69 | RRIRWRPPRLPRPRPRPPTCPRP | 0.614
70 | RRIRWRPPRLPRPRPRPPTGPRP | 0.23
71 | RRIRWRPPRLPRPRPRPPTRPRP | 0.578
72 | RRIRWRPPRLPRPRPRPPVSPRP | 0.289
73 | RRIRWRPPRLPRPRPRPPWEPRP | 0.541
74 | RRIRWRPPRLPRPRPRPPWWPRP | 0.674
75 | RRIRWRPPRLPRPRPRPPYCPRP | -0.0779
76 | RRIRWRPPRLPRPRPRPQAPPRP | -0.164
77 | RRIRWRPPRLPRPRPRPQCLPRP | -0.073
78 | RRIRWRPPRLPRPRPRPQCRPRP | -0.00115
79 | RRIRWRPPRLPRPRPRPQDQPRP | 0.0586
80 | RRIRWRPPRLPRPRPRPQDYPRP | -0.406
81 | RRIRWRPPRLPRPRPRPQGVPRP | 0.198
82 | RRIRWRPPRLPRPRPRPQHDPRP | 0.202
83 | RRIRWRPPRLPRPRPRPQHIPRP | -0.736
84 | RRIRWRPPRLPRPRPRPQIRPRP | -0.0767
85 | RRIRWRPPRLPRPRPRPQKPPRP | 0.0546
86 | RRIRWRPPRLPRPRPRPQMHPRP | 0.0794
87 | RRIRWRPPRLPRPRPRPQMWPRP | 0.369
88 | RRIRWRPPRLPRPRPRPQNGPRP | 0.00668

Row | Sequence | shrunken log2 fold change
89 | RRIRWRPPRLPRPRPRPQNMPRP | -0.0938
90 | RRIRWRPPRLPRPRPRPQNPPRP | -0.0448
91 | RRIRWRPPRLPRPRPRPQPFPRP | 0.133
92 | RRIRWRPPRLPRPRPRPQRAPRP | 0.66
93 | RRIRWRPPRLPRPRPRPQRNPRP | 0.0121
94 | RRIRWRPPRLPRPRPRPQRRPRP | 0.358
95 | RRIRWRPPRLPRPRPRPQTFPRP | -0.293
96 | RRIRWRPPRLPRPRPRPQVLPRP | -0.0271
97 | RRIRWRPPRLPRPRPRPQWDPRP | -0.0065
98 | RRIRWRPPRLPRPRPRPQWWPRP | 0.00856
99 | RRIRWRPPRLPRPRPRPRAEPRP | 0.621
100 | RRIRWRPPRLPRPRPRPRCIPRP | -0.036
101 | RRIRWRPPRLPRPRPRPRCYPRP | -0.0698
102 | RRIRWRPPRLPRPRPRPRDEPRP | 0.0548
103 | RRIRWRPPRLPRPRPRPRDRPRP | 0.909
104 | RRIRWRPPRLPRPRPRPRFGPRP | 0.395
105 | RRIRWRPPRLPRPRPRPRGEPRP | 0.397
106 | RRIRWRPPRLPRPRPRPRHDPRP | 0.107
107 | RRIRWRPPRLPRPRPRPRHHPRP | -0.0574
108 | RRIRWRPPRLPRPRPRPRINPRP | 0.0839
109 | RRIRWRPPRLPRPRPRPRLSPRP | 0.154

From the supplement of paper PMC9112550, “Optimization of the antimicrobial peptide Bac7 by deep mutational scanning” (BMC Biology, 2022)
